Measurements from patent US20060159654A1 (ROCKEFELLER UNIVERSITY, published 2006).

What was measured:
[1] = molecular target: murine TRANCE receptor (TRANCE-R) on the cell surface (murine) (UniProt O35305); test: cell-based or functional assay
[2] = molecular target: T1, murine TRANCE (mTRANCE) on the cell surface (murine, UniProt O35235 1-316); test: flow cytometry on transfected 293T cells and on activated murine T cells, TR-Fc at 5 mg/ml as printed, FITC anti-human Fc
T1 construct: also called RANK-L
T1 sequence: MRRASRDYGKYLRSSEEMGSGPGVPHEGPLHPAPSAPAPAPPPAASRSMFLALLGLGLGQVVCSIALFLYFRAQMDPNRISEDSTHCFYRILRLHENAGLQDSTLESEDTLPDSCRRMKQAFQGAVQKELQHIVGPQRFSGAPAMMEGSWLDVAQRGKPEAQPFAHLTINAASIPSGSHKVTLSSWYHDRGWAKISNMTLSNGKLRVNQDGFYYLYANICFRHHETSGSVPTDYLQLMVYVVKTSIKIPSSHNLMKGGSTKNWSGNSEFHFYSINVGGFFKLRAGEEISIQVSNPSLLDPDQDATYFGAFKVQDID
Protocol: Determination of the specificity of hCD8-TRANCE and TR-Fc.
Flow cytometry. The expression of TRANCE on activated CD4+ and CD8⁺ T-cells was assessed using the TR-Fc fusion protein at 5 mg/ml followed by FITC-conjugated goat anti-human IgG (Fc specific) F(ab′)₂ fragment (Jackson. Laboratories, West Grove, Pa.). The negative control consisted of normal hIgG1 (Sigma, St Louis, […].). T-cell and thymocyte subsets were sorted using a FACS “VANTAGE”, (Becton Dickinson, Mountain View, Calif.).

FLAG-tagged soluble form of TRANCE (TRANCE-Ecto) (from UniProt O35235 72-316) (ligand)
JNK activation (fold induction over unstimulated), LNTC [1]: 2 fold | JNK activation (fold induction over unstimulated), T cell hybridomas [1]: 2 fold | JNK activation (fold induction over unstimulated), thymocytes [1]: 3 fold

human CD8-TRANCE recombinant molecule (from UniProt P01732 22-182) (ligand)
JNK activity in thymocytes of control littermates [1]: 2.5 fold

B1: TRANCE-R-Fc recombinant molecule (Fc fusion, murine, UniProt O35305 31-214, looked up)
chain: VTPPCTQERHYEHLGRCCSRCEPGKYLSSKCTPTSDSVCLPCGPDEYLDTWNEEDKCLLHKVCDAGKALVAVDPGNHTAPRRCACTAGYHWNSDCECCRRNTECAPGFGAQHPLQLNKDTVCTPCLLGFFSDVFSSTDKCKPWTNCTLLGKLEAHQGTTESDVVCSSSMTLRRPPKEAQAYLPS
notes: extracellular domain; Made in a baculovirus system and purified on protein A sepharose; also called TR-Fc; TR.R-Fc; not shown: Fc portion of human IgG1, fused to the C-terminal end of the receptor's extracellular domain
binding result [2]: binds
